Measured values as given in paper PMC5108039, “Functional and Structural Characterization of a Novel HLA-DRB1*04:01-Restricted α-Enolase T Cell Epitope in Rheumatoid Arthritis” (Frontiers in Immunology, 2016).
Square brackets hold non-standard residues; d marks the D form. Ends that are not written are not given here. Peptide text beside a SMILES is read from it. Cit = NC(=O)NCCC[C@H](N)C(=O)O

What was measured:
HLA-DRB1*04:04 = HLA-DRB1*04:04 (Homo sapiens, UniProt P01903+P01911, A100R/A169T/F76Y/I96L/K127E/L162R/M171V/N62H/P40V/Q125Y/R42H/S133A/S149N/S66Y/V209L/W38E); experiment: Competition peptide-binding assay, HLA-DRB1*04:04; conditions: competition with 0.02 μM biotinylated GAD65 270–285, plate-bound HLA-DRB1*04:04, increasing peptide concentrations; read-out: IC50 *04:04
Procedure: Stepwise binding analysis of 15-mer peptides derived from both native and citrullinated α-enolase to HLA-DRB1*01, *04:01, and *04:04 was performed using the ProImmune Class II Reveal assay (ProImmune, Oxford, UK). Relevant peptides were thereafter synthesized by GenScript (Piscataway, NJ, USA) and used for competition peptide-binding assays. […] Finally, peptide-binding affinity to the three different HLA alleles was assessed in direct binding assays in which N-terminally biotinylated epitopes (GenScript, Piscataway, NJ, USA) were incubated at concentrations from 5 to 0.05 μM with plate-bound relevant HLA-DRB1 molecules in the absence of a competitor peptide ([22]). The inflection point of the binding curve of a known binding epitope was used as a cutoff to separate weakly binding epitopes from background. […]

HLA-DRB1*01:01 = HLA-DRB1*01:01 (Homo sapiens, UniProt P01903+P01911, A100R/D57E/F55L/F60I/F76Y/I96L/L162R/M171V/P40L/Q125E/R42F/V115G/Y59C); experiment: Competition peptide-binding assay, HLA-DRB1*01:01; conditions: competition with 0.02 μM biotinylated HA306–318, plate-bound HLA-DRB1*01:01, increasing peptide concentrations; read-out: IC50 *01:01
Procedure: Stepwise binding analysis of 15-mer peptides derived from both native and citrullinated α-enolase to HLA-DRB1*01, *04:01, and *04:04 was performed using the ProImmune Class II Reveal assay (ProImmune, Oxford, UK). Relevant peptides were thereafter synthesized by GenScript (Piscataway, NJ, USA) and used for competition peptide-binding assays. […] Finally, peptide-binding affinity to the three different HLA alleles was assessed in direct binding assays in which N-terminally biotinylated epitopes (GenScript, Piscataway, NJ, USA) were incubated at concentrations from 5 to 0.05 μM with plate-bound relevant HLA-DRB1 molecules in the absence of a competitor peptide ([22]). The inflection point of the binding curve of a known binding epitope was used as a cutoff to separate weakly binding epitopes from background.
We decided to make use of HLA-DRB1*01:01 as a representative model for HLA-DRB1*01.

HLA-DRB1*04:01 = HLA-DRB1*04:01 (Homo sapiens, UniProt P01903+P01911, A100K/A169T/F76Y/I96L/K127E/L162R/M171V/N62H/P40V/Q125Y/R42H/S133A/S149N/S66Y/V115G/V209L/W38E); experiment: biochemical
[1] = tested on: cultured PBMCs from RA patients; experiment: Bead-based multiplex cytokine assay in culture supernatants; type: cell-based, human; conditions: supernatants of cultured PBMCs, day 5, Luminex panel IL-10, IL-13, IL-17A, IL-17F, TNF-α, IFN-γ
Procedure: A bead-based multiplex cytokine assay was custom-designed by Invitrogen for simultaneous detection of IL-10, IL-13, IL-17A, IL-17F, TNF-α, and IFN-γ on a Luminex platform. Supernatants were collected at day 5 and stored at −80°C until used. Supernatants from RA patients were analyzed using the Luminex 100 system according to the manufacturer’s instructions.

[2] = target: HLA-DRB1*01:01 (plate-bound, peptide-binding assays) (human); experiment: competition peptide-binding assay on plates
[3] = target: HLA-DRB1*04:04 (plate-bound, peptide-binding assays) (human); experiment: competition peptide-binding assay on plates
[4] = target: HLA-DRB1*04:01 (plate-bound, peptide-binding assays) (human); experiment: competition peptide-binding assay on plates

Row | IC50 [2] [nM] | IC50 [3] [nM] | IC50 [4] [nM] | Molecule | IC50 (HLA-DRB1*04:04) [nM] | IC50 (HLA-DRB1*01:01) [nM] | IC50 (HLA-DRB1*04:01) [nM] | cytokine response in supernatants compared to the native peptide form [1]
1 | – | – | – | CC(C)C[C@H](NC(=O)[C@@H]1CCCN1C(=O)[C@H](CC(N)=O)NC(=O)[C@H](CCCNC(=N)N)NC(=O)[C@H](Cc1ccccc1)NC(=O)[C@H](CC(N)=O)NC(=O)[C@H](CCCNC(=N)N)NC(=O)CNC(=O)[C@H](C)NC(=O)[C@H](Cc1ccccc1)NC(=O)[C@H](CCCCN)NC(=O)[C@H](C)NC(=O)[C@@H](N)CCCCN)C(=O)N[C@@H](C)C(=O)N[C@@H](CCCCN)C(=O)O [peptide 420] (H-KAKFAGRNFRNPLAK-OH) | 25000 | > 50000 | > 50000 | –
2 | – | – | – | CC[C@H](C)[C@H](NC(=O)[C@H](CCCCN)NC(=O)[C@H](CC(C)C)NC(=O)[C@@H](NC(=O)[C@H](CO)NC(=O)[C@@H](N)CCSC)[C@@H](C)CC)C(=O)N[C@@H](Cc1c[nH]cn1)C(=O)N[C@@H](C)C(=O)N[C@@H](CCCNC(=N)N)C(=O)N[C@@H](CCC(=O)O)C(=O)N[C@H](C(=O)N[C@@H](Cc1ccccc1)C(=O)N[C@@H](CC(=O)O)C(=O)N[C@@H](CO)C(=O)N[C@@H](CCCNC(=N)N)C(=O)O)[C@@H](C)CC [peptide 1] (H-MSILKIHAREIFDSR-OH) | > 50000 | 3500 | > 50000 | –
3 | – | – | – | CC(C)C[C@H](NC(=O)CNC(=O)[C@H](CCCCN)NC(=O)[C@H](CO)NC(=O)[C@@H](N)[C@@H](C)O)C(=O)N[C@@H](Cc1ccccc1)C(=O)N[C@@H](CCCNC(=N)N)C(=O)N[C@@H](C)C(=O)N[C@@H](C)C(=O)N[C@H](C(=O)N1CCC[C@H]1C(=O)N[C@@H](CO)C(=O)NCC(=O)N[C@@H](C)C(=O)N[C@@H](CO)C(=O)O)C(C)C [peptide 26] (H-TSKGLFRAAVPSGAS-OH) | 500 | 1400 | 4000 | –
4 | – | – | – | CC(C)C[C@H](NC(=O)CNC(=O)[C@H](CCCCN)NC(=O)[C@H](CO)NC(=O)[C@@H](N)[C@@H](C)O)C(=O)N[C@@H](Cc1ccccc1)C(=O)N[C@@H](CCCNC(N)=O)C(=O)N[C@@H](C)C(=O)N[C@@H](C)C(=O)N[C@H](C(=O)N1CCC[C@H]1C(=O)N[C@@H](CO)C(=O)NCC(=O)N[C@@H](C)C(=O)N[C@@H](CO)C(=O)O)C(C)C [cit26] (H-TSKGLF[Cit]AAVPSGAS-OH) | 500 | 1900 | 1500 | –
5 | – | – | – | CC[C@H](C)[C@H](NC(=O)[C@@H](N)C(C)C)C(=O)NCC(=O)N[C@@H](CCSC)C(=O)N[C@@H](CC(=O)O)C(=O)N[C@H](C(=O)N[C@@H](C)C(=O)N[C@@H](C)C(=O)N[C@@H](CO)C(=O)N[C@@H](CCC(=O)O)C(=O)N[C@@H](Cc1ccccc1)C(=O)N[C@@H](Cc1ccccc1)C(=O)N[C@@H](CCCNC(N)=O)C(=O)N[C@@H](CO)C(=O)NCC(=O)O)C(C)C [cit241] (H-VIGMDVAASEFF[Cit]SG-OH) | 200 | 42000 | 2500 | –
6 | – | – | – | CC[C@H](C)[C@H](NC(=O)[C@@H](N)C(C)C)C(=O)NCC(=O)N[C@@H](CCSC)C(=O)N[C@@H](CC(=O)O)C(=O)N[C@H](C(=O)N[C@@H](C)C(=O)N[C@@H](C)C(=O)N[C@@H](CO)C(=O)N[C@@H](CCC(=O)O)C(=O)N[C@@H](Cc1ccccc1)C(=O)N[C@@H](Cc1ccccc1)C(=O)N[C@@H](CCCNC(=N)N)C(=O)N[C@@H](CO)C(=O)NCC(=O)O)C(C)C [compound 241] (H-VIGMDVAASEFFRSG-OH) | 500 | 35000 | 2000 | –
7 | – | – | – | CC[C@H](C)[C@H](NC(=O)[C@H](Cc1c[nH]cn1)NC(=O)[C@H](CCC(=O)O)NC(=O)[C@@H](NC(=O)[C@H](C)NC(=O)[C@H](CCCCN)NC(=O)[C@H](CO)NC(=O)[C@@H](NC(=O)CNC(=O)[C@H](CCCCN)NC(=O)CNC(=O)[C@H](CCSC)NC(=O)[C@H](Cc1ccc(O)cc1)NC(=O)[C@@H](N)CCCNC(N)=O)C(C)C)C(C)C)C(=O)N[C@@H](CC(N)=O)C(=O)O [cit56] (H-[Cit]YMGKGVSKAVEHIN-OH; N-terminus and C-terminus assumed) | > 50000 | > 50000 | – | strong responses
8 | 1900 | 500 | 1500 | TSKGLF[Cit]AAVPSGAS [α-enolase peptide Cit26 (residues 26–40), citrullinated] | – | – | – | –
9 | > 50000 | 700 | 1700 | KRIAKAVNEKSCNCL [α-enolase peptide 326 (residues 326–340), native] | – | – | – | –
10 | 42000 | 200 | 2500 | VIGMDVAASEFF[Cit]SG [α-enolase peptide Cit241 (residues 241–255), citrullinated] | – | – | – | –
11 | > 50000 | 28000 | > 50000 | KAKFAG[Cit]NF[Cit]NPLAK [α-enolase peptide Cit420 (residues 420–434), citrullinated] | – | – | – | –
12 | > 50000 | 700 | 1900 | K[Cit]IAKAVNEKSCNCL (cysteine pairing not given here) [α-enolase peptide Cit326 (residues 326–340), citrullinated] | – | – | – | –
13 | > 50000 | 25000 | > 50000 | KAKFAGRNFRNPLAK [α-enolase peptide 420 (residues 420–434), native] | – | – | – | –
14 | 35000 | 500 | 2000 | VIGMDVAASEFFRSG [α-enolase peptide 241 (residues 241–255), native] | – | – | – | –
15 | 1400 | 500 | 4000 | TSKGLFRAAVPSGAS [α-enolase peptide 26 (residues 26–40), native] | – | – | – | –
